{"source": "paper doi:10.1101/2021.01.25.428038", "about": "(bioRxiv, 2021)", "proteins": {"B1": {"name": "hTMIGD1-Fc (extracellular domain of hTMIGD1, AA 1-222, fused to the Fc-part of human IgG) (Fc fusion)", "chain": "VLTVNGKTENYILDTTPGSQASLICAVQNHTREEELLWYREEGRVDLKSGNKINSSSVCVSSISENDNGISFTCRLGRDQSVSVSVVLNVTFPPLLSGNDFQTVEEGSNVKLVCNVKANPQAQMMWYKNSSLLDLEKSRHQIQQTSESFQLSITKVEKPDNGTYSCIAKSSLKTESLDFHLIVKDKTVGVPIE"}}, "target": "the molecule itself", "assay": "bead aggregation assay"}
{"protein": "B1", "values": [{"measurement": "binding result", "result": "binds"}]}
